The values below are quoted from earlier work in US20130337579.

The term pKd denotes −log10 of the Kd, conventionally taken in molar units.

pKd: −log10 of the molar value.

This series concerns the target CRP (cited studies) (Escherichia coli) (UniProt P0ACJ8). The series is described as follows: EMSA. The following applies: CITED Fried 1984. In general terms: Mobility shift assays separate free from complexed probe on a gel.

Chain of CRP (cited studies) (Escherichia coli) (P0ACJ8 2-210): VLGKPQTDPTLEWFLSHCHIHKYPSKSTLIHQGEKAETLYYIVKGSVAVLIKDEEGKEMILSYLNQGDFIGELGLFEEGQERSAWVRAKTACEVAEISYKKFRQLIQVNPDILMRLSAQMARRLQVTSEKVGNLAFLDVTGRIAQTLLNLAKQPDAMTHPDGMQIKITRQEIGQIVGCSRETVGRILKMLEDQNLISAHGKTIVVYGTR

In the case of lac CRP oligo (Fried 1984), the pKd reads like this: (200 nM cAMP) 7.20; (5 uM cAMP) 9.08.
